Tests used:
[1] = biological target: T1, HUαβ (Escherichia coli, UniProt P0ACF0;P0ACF4 1-90;1-90); assay: ITC
[2] = biological target: T1, HUαβ; assay: ITC; remark: listed apart in the source

T1 sequence (P0ACF0 whole entry, chain 1 of 2): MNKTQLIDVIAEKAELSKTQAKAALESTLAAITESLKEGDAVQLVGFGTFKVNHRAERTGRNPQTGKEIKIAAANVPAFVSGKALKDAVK
T1 sequence (P0ACF4 whole entry, chain 2 of 2): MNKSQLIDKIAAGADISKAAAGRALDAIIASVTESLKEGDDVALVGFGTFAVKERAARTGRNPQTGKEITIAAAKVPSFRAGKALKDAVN

Binder	binding signal [1] [k10/k6 ratio]	binding result [2]
15 bp DNA (dsDNA) DNA 1: CGGTCAGTTCAAGGC DNA 2: GCCTTGAACTGACCG	2.8 ± 1	–
38 bp DNA (dsDNA) DNA 1: CGGTCAGTTCAAGCCCTTCTAAGTTTGTAGACACCAGC DNA 2: GCTGGTGTCTACAAACTTAGAAGGGCTTGAACTGACCG	–	binds

Source: paper PMC3115508
